Measurements reported in article PMC3392930 (The Journal of Cell Biology, 2012).
Read-outs that look alike come from different tables or passages of the source.

Experiments:
[1] = target: S-tagged RSP3_(1–160) (Chlamydomonas reinhardtii) (UniProt P12759); assay: pull-down
cross-linking [2] = target: the molecule itself; assay: cross-linking
cross-linking [3] = target: the molecule itself; assay: cross-linking; remark: listed apart in the source

His-tagged LC8 (natural protein)
stoichiometry N (LC8 per RSP3 (1–160)) [1]: 3

B1: RSP3_(1–170)-Cys (domain or fragment, Chlamydomonas reinhardtii, UniProt P12759 1-170, looked up)
chain: MVQAKAQQQLYTHAAEPKAVQQRRAKYREDETTQTLPTANIMFDRRVVRGNTYAARILPADATQTQTKGPSPASTKKRTTRTLPPRTPEAVDGRRHIDIQTDVYLEELTDTVPEADTSTQTDAFLDRPPTPLFVPQKTGTDAITQIENGDLFDFDFEVEPILEVLVGKVL
stoichiometry N (cross-linking [2]): 2

B2: RSP3_(1–170)-HAHis (domain or fragment, Chlamydomonas reinhardtii, UniProt P12759 1-170, looked up)
chain: MVQAKAQQQLYTHAAEPKAVQQRRAKYREDETTQTLPTANIMFDRRVVRGNTYAARILPADATQTQTKGPSPASTKKRTTRTLPPRTPEAVDGRRHIDIQTDVYLEELTDTVPEADTSTQTDAFLDRPPTPLFVPQKTGTDAITQIENGDLFDFDFEVEPILEVLVGKVL
stoichiometry N (cross-linking [3]): 2
